According to US20170137513A1:

Biological target: T1, monkey CD22 (Rhesus monkey) (UniProt H9G1X2)
T1 sequence: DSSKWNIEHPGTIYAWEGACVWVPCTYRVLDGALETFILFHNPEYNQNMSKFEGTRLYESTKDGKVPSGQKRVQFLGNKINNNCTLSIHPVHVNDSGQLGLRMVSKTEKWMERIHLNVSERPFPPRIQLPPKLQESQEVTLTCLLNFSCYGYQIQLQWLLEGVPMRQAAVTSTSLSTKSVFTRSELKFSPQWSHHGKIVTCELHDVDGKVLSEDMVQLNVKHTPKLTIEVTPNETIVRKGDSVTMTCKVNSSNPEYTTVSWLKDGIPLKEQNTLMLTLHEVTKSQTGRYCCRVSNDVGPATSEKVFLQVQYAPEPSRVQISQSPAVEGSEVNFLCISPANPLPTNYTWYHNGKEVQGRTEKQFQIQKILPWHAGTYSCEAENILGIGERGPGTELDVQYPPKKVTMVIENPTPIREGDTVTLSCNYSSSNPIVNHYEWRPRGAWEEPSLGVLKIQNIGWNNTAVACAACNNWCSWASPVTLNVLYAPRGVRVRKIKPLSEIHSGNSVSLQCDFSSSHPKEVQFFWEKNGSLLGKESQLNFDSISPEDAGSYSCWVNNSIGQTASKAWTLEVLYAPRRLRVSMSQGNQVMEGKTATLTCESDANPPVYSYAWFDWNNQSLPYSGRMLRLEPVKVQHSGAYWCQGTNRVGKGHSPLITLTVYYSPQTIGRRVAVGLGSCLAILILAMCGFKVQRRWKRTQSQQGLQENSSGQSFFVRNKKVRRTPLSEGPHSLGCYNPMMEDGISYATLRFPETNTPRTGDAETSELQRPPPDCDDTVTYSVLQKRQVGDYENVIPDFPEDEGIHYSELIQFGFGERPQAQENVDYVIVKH
Test: flow cytometry, direct immunofluorescence on Rhesus monkey PBMC

B1: RFB4 monoclonal antibody (antibody, V domains shown)
VH: EVQLVESGGGLVKPGGSLKLSCAASGFAFSIYDMSWVRQTPEKRLEWVAYISSGGGTTYYPDTVKGRFTISRDNAKNTLYLQMSSLKSEDTAMYYCARHSGYGSSYGVLFAYWGQGTLVTVSA
VL: DIQMTQTTSSLSASLGDRVTISCRASQDISNYLNWYQQKPDGTVKLLIYYTSILHSGVPSRFSGSGSGTDYSLTISNLEQEDFATYFCQQGNTLPWTFGGGTKLEIK
- percent positive cells: 31.3%
